Measurements reported in patent US20050271651A1, “Inhibition of bright function as a treatment for excessive immunoglobulin production” (Oklahoma Medical Research Foundation, published 2005).
Positions count from the first letter of the chain named. Numbers in names are those of the source.

T1: mouse Bright, native (untagged) wild-type (mouse) (UniProt Q62431)
T1 sequence (looked up): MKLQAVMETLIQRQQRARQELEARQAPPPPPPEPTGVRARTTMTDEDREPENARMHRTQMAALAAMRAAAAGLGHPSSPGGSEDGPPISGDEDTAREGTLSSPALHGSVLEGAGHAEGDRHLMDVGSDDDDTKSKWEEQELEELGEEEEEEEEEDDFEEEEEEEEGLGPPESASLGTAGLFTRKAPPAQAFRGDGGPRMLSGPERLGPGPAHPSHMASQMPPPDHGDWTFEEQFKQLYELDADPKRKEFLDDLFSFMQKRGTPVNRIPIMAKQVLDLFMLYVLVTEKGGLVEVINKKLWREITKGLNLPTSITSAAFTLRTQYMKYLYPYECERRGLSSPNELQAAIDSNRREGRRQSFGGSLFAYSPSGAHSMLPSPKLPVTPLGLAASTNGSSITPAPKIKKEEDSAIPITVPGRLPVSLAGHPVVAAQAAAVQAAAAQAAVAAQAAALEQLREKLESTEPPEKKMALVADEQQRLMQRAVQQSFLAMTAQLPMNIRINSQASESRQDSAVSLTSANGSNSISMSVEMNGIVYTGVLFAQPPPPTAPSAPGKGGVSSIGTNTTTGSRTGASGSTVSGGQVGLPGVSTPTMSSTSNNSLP

T2: Bright (ARID3A/Dril1) (Homo sapiens, UniProt Q99856 SEQ:1-593)
T2 sequence: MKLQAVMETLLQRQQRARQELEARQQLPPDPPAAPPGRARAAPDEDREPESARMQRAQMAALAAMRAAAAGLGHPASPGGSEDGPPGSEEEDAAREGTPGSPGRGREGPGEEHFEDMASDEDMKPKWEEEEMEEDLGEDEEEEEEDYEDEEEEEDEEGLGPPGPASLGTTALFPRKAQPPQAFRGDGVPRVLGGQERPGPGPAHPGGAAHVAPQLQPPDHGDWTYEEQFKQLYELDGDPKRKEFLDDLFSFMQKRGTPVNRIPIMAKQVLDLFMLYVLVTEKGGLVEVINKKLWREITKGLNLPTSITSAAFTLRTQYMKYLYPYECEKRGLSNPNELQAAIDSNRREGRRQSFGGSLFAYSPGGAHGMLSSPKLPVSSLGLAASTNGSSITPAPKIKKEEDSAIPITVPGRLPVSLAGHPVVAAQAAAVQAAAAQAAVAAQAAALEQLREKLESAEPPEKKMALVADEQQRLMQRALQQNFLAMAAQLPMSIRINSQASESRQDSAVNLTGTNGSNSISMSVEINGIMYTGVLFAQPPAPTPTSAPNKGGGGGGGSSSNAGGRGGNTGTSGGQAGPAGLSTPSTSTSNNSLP

B1: human Bright (B cell regulator of IgH transcription) (other)
chain: T2 sequence
notes: Transcription factor; Tested as in vitro translated protein from a full-length clone, and as endogenous protein in nuclear extracts of the human cell lines CL01, K562 and 300212; also called Dril 1; DRIL1
B2: mouse Bright, native (untagged) wild-type (other, UniProt Q62431 1-601, looked up)
chain: T1 sequence (looked up)
notes: range 1-601; Untagged protein, tested in three forms: expressed in CHO cells, in vitro translated, or endogenous in the mouse B cell lines BCg3R-1d and M12g3Ri; Found as a dimer in solution by size exclusion chromatography; also called native Bright; wild-type Bright
B3: mouse Bright F317A, C-terminal myc-his tagged (other, UniProt Q62431 1-601, looked up)
chain: T1 sequence (looked up) with F317A
notes: range 1-601; not shown: C-terminal myc-his tag from vector pcDNA4/TO/myc-His B
B4: mouse Bright REKLES mutant (REKLES at amino acids 455-460 changed to AEALEA), C-terminal myc-his tagged (other, UniProt Q62431 1-601, looked up)
chain: T1 sequence (looked up) with R455A, K457A, S460A
notes: as for B3
B5: mouse Bright W299A, C-terminal myc-his tagged (other, UniProt Q62431 1-601, looked up)
chain: T1 sequence (looked up) with W299A
notes: as for B3
B6: mouse Bright Y330A, C-terminal myc-his tagged (other, UniProt Q62431 1-601, looked up)
chain: T1 sequence (looked up) with Y330A
notes: as for B3
B7: mouse Bright double point mutant (W299A and Y330A), C-terminal myc-his tagged (other, UniProt Q62431 1-601, looked up)
chain: T1 sequence (looked up) with W299A, Y330A
notes: range 1-601; also called DP; DP Bright; not shown: C-terminal myc-his tag from vector pcDNA4/TO/myc-His B
B8: mutated Bright site competitor (dsDNA)
DNA 1: TAAGTATAAATATGTACATGAGTACACCCTCCACTTATTTATCTTA
DNA 2: TAAGATAAATAAGTGGAGGGTGTACTCATGTACATATTTATACTTA

Assays:
[1] = target: mouse Bright, wild-type, C-terminal myc-his tagged (mouse) (UniProt Q62431); assay: cell-based or functional assay
[2] = target: T1, mouse Bright, native (untagged) wild-type (mouse); assay: cell-based or functional assay
[3] = target: human Btk, endogenous in the B cell lines CL01 and 300212 (human, UniProt Q06187 2-659); assay: EMSA supershift with anti-Btk, nuclear extracts of CL01 and 300212 cells
Chain of human Btk, endogenous in the B cell lines CL01 and 300212 (Q06187 2-659 limits assumed): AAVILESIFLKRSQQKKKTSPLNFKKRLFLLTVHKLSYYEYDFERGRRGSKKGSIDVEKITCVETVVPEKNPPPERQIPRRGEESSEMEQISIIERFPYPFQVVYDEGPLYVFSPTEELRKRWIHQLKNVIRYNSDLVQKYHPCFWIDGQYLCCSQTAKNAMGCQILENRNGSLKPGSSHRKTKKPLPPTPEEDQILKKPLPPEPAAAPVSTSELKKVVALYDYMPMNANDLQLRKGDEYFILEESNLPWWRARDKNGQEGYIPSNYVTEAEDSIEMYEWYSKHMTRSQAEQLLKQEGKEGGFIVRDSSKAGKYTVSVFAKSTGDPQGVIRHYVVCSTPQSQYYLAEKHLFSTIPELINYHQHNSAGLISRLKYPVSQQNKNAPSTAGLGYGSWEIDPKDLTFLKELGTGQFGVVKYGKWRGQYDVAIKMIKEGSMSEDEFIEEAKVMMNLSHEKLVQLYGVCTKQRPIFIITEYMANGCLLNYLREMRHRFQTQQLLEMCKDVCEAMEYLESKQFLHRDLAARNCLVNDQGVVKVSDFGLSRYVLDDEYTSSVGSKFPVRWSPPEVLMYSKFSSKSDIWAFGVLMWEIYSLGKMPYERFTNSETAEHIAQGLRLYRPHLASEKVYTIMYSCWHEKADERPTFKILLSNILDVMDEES
Procedure: FIG. 7—Btk associates with Bright in a subset of DNA-bound complexes. Mobility-shift assays were performed with nuclear extracts from two B cell lines (CL01 and 300212) and the T cell line, Molt-4. Anti-sera to CDP or the pleckstrin domain of Btk was added as in FIG. 2A-D. In some cases the anti-Btk sera was diluted 1:10 with PBS (0.1) prior to addition. Data are representative of six experiments.
Electrophoretic mobility shift assays (EMSAs). Nuclear extracts were prepared by hypotonic lysis, protein concentrations were quantified with Bradford reagents (BioRad, Richmond, Calif.), and EMSAs were performed in 4% nondenaturing acrylamide gels after incubation for 15 min at 37° C. with gamma-³²P-labeled probe, as previously described (Buchanan et al., 1995). The prototypic Bright binding site (a 150 base pair Bam HI-Fok I fragment called bf150) from the S107 V1 5′ flanking sequence (Webb et al., 1991) was used as a probe. In some instances, antibodies were added 5 min before incubation with the probe. […] A double-stranded oligo containing the 45 base pair foot-printed Bright binding site within bf150 described in Webb et al. (1991) was used as a specific competitor in increasing concentrations and a mutated version of that oligonucleotide containing the double-stranded sequence corresponding to 5′-[…]-3′ (SEQ ID NO:6) was used as a non-specific competitor. […]

[4] = target: the molecule itself; assay: size exclusion chromatography of nuclear extracts, western blot of fractions
Procedure: (§1) FIGS. 11A-B—Tagged Bright proteins dimerize with native Bright. (FIG. 11A) Nuclear extracts from cells expressing Bright protein were subjected to size exclusion chromatography and protein fractions were analyzed for Bright by western blotting (lower panel). Data are presented graphically relative to molecular weight standards in the upper panel and are representative of four experiments. (FIG. 11B) C-terminal myc-his tagged Bright was either singly or coexpressed in CHO cells with native Bright. […] Immunoprecipitations using anti-myc Ab (middle panel) and anti-Sp1 as an isotype control (bottom panel) were performed with each of the transfected extracts and developed with anti-Bright reagents. Arrows indicate immunoglobulin heavy chain cross-reactive with the secondary reagent. Data are representative of two separate experiments.
Column chromatography. Nuclear extracts from CHO cells transfected with the full-length Bright expression plasmid (Herrscher et al., 1995) were centrifuged at 10,000×g to remove aggregates and applied to a pre-calibrated Bio-Gel A 0.5 m size exclusion column (Bio-Rad, Hercules, Calif.) in 0.05 M Tris-HCl, pH 8.0, 0.1 M KCl and 20% glycerol according to the manufacturer's directions. The column was calibrated before and after use with Bio-Rad gel filtration standards to ensure maintenance of column integrity. […]

[5] = target: B2; assay: co-expression in CHO cells, anti-myc immunoprecipitation, anti-Bright blot
Procedure: as §1
To determine if the mutated proteins formed heterodimers with wild-type Bright, his-myc-tagged mutant forms of Bright were co-expressed in CHO cells with native wild-type Bright. Tagged proteins were distinguished from native Bright by the slight size differences in western blots (FIG. 11B) and were confirmed using anti-tag antibodies (not shown). Anti-myc antibodies were used to immunoprecipitate the tagged proteins and blots were developed with anti-Bright (FIG. 11B). In every case, a lower molecular weight band was detected that reflected the presence of native Bright.

[6] = target: the molecule itself; assay: size exclusion chromatography (not shown)
Bright (ARID3A/Dril1) = target: T2, Bright (ARID3A/Dril1); assay: competition; nonspecific competitor, recombinant Bright; details: tags: TNT rabbit reticulocyte lysate
Procedure: Electrophoretic mobility shift assays (EMSAs). Nuclear extracts were prepared by hypotonic lysis, protein concentrations were quantified with Bradford reagents (BioRad, Richmond, Calif.), and EMSAs were performed in 4% nondenaturing acrylamide gels after incubation for 15 min at 37° C. with gamma-³²P-labeled probe, as previously described (Buchanan et al., 1995). The prototypic Bright binding site (a 150 base pair Bam HI-Fok I fragment called bf150) from the S107 V1 5′ flanking sequence (Webb et al., 1991) was used as a probe. In some instances, antibodies were added 5 min before incubation with the probe. […] A double-stranded oligo containing the 45 base pair foot-printed Bright binding site within bf150 described in Webb et al. (1991) was used as a specific competitor in increasing concentrations and a mutated version of that oligonucleotide containing the double-stranded sequence corresponding to 5′-[…]-3′ (SEQ ID NO:6) was used as a non-specific competitor. Underlined nucleotides represent changes from the prototype. Competition assays were performed as previously described (Webb et al., 1991).
To confirm that the protein complexes that reacted with anti-Bright antibodies in FIG. 2D were specific for the Bright binding site, competition experiments were performed in the presence of double-stranded oligonucleotides spanning the Bright binding motif.

Btk xid mutant (R28C) (enzyme)
V1 transcription relative to wild-type Btk (Real Time PCR, CHO cells) [1]: 50%

Bruton's tyrosine kinase (Btk), wild-type, ectopically expressed or recombinant (enzyme)
Bright DNA-binding activity remaining after competitor DNA (EMSA, in vitro translated Bright plus recombinant Btk) [2]: < 50 % reduction

B1
binding result [3]: binds

B2
binding result [4]: binds

B3
binding result [5]: binds

B4
binding result [6]: binds | binding result [5]: binds

B5
binding result [5]: binds

B6
binding result [5]: binds

B7
binding result [5]: binds

B8
binding result (Bright (ARID3A/Dril1)): no binding
